Experimental data as given in the supplement of paper PMC9170038.

Tested on: MS2 coat protein
Experiment: apparent KD of MS2 coat protein; designed switch direction (-1 OFF switch, 1 ON switch): -1; higher = weaker reporter binding
Method in brief: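 Three titration conditions were used: no input, 200 uM small-molecule ligand, and an oligonucleotide input. In each, SNAP-549-labelled MS2 coat protein was raised from 0.7 or 1.5 nM, doubling, to 3 µM over designed RNA switches transcribed on Illumina chips by stalled E. coli RNA polymerase. Curve fits of normalised cluster fluorescence gave values whose per-design median over clusters is the apparent KD.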

[1] = Eterna round: R95, input ligand: FMN 200 uM
[2] = Eterna round: R95, input ligand: microRNA oligo, concentration not stated
[3] = Eterna round: R95, input ligand: none
[4] = input ligand: microRNA oligo, concentration not stated

| Sequence | apparent KD of MS2 coat protein [1] [nM] | apparent KD of MS2 coat protein [2] [nM] | apparent KD of MS2 coat protein [3] [nM] | apparent KD of MS2 coat protein (input ligand: FMN 200 uM) [nM] | apparent KD of MS2 coat protein [4] [nM] | apparent KD of MS2 coat protein (input ligand: none) [nM] |
| --- | --- | --- | --- | --- | --- | --- |
| AGUACUAACACGAAAGUGUUAGUACAAUAAGCUUGUGCAACAUGAGGAUCACCCAUGUCCUCAUAAGCUCGUCUUAU [salish99_TOv2_r3_044] (puzzle: Sensor v3, turn-off variant 2) | 544 | 75.2 | 574 |  |  |  |
| AGUACUAACACGAAAGUGUUAGUACAAUAAGCUUGUGUUACAUGAGGAUCACCCAUGUCCUCAUAAGCUCGUCUUAA [Mat - Sensor v3 - Turn-off var 2 - D49] (puzzle: Sensor v3, turn-off variant 2) | 39.9 | 200 | 47.4 |  |  |  |
| AGUACUAACACGAAAGUGUUAGUACUAUAAGCUUGUGUAACAUGAGGAUCACCCAUGUCCUCAUAAGCUCGUCUUAU [Mat - Sensor v3 - Turn-off var 2 - D100] (puzzle: Sensor v3, turn-off variant 2) | 58.3 | 131 | 61.2 |  |  |  |
| AGUACUAACACGAAAGUGUUAGUCCAAUAAGCUUGUGAAACAUGAGGAUCACCCAUGUCCUCAUAAGCUCGUCUUAU [salish99_TOv2_r3_038] (puzzle: Sensor v3, turn-off variant 2) | 17.4 | 454 |  |  |  |  |
| AGUACUAACACGAUAGUGUUAGUACUAUAAGCUUGUGUUACAUGAGGAUCACCCAUGUCCUCAUAAGCUCGUCUUAA [Mat - Sensor v3 - Turn-off var 2 - D65] (puzzle: Sensor v3, turn-off variant 2) | 36.9 | 420 | 38.1 |  |  |  |
| AGUACUAACACGCGAGUGUUAGUACAAUAAGCUUGUGAAACAUGAGGAUCACCCAUGUCCUCAUAAGCUCGUCUUAU [salish99_TOv2_r3_059] (puzzle: Sensor v3, turn-off variant 2) | 16.7 | 674 | 14.5 |  |  |  |
| AGUACUAACACGCGUGUGUUAGUACAAUAAGCUUGUGAAACAUGAGGAUCACCCAUGUCCUCAUAAGCUCGUCUUAU [salish99_TOv2_r3_076] (puzzle: Sensor v3, turn-off variant 2) | 15.7 | 608 | 13.7 |  |  |  |
| AGUACUAACACGCUUGUGUUAGUACAAUAAGCUUGUGAAACAUGAGGAUCACCCAUGUCCUCAUAAGCUCGUCUUAU [salish99_TOv2_r3_072] (puzzle: Sensor v3, turn-off variant 2) | 17 | 654 | 15.9 |  |  |  |
| AGUACUAACACGGAAGUGUUAGUACAAUAAGCUUGUGUUACAUGAGGAUCACCCAUGUCCUCAUAAGCUCGUCUUAA [Mat - Sensor v3 - Turn-off var 2 - D62] (puzzle: Sensor v3, turn-off variant 2) | 48.4 | 487 | 40.2 |  |  |  |
| AGUACUAACACGGGAGUGUUAGUACAAUAAGCUUGUGAAACAUGAGGAUCACCCAUGUCCUCAUAAGCUCGUCUUAU [salish99_TOv2_r3_060] (Eterna round: R96, puzzle: Sensor v3, turn-off variant 2) |  |  |  | 14.5 | 436 | 17.4 |
| AGUACUAACACGGGAGUGUUAGUACAAUAAGCUUGUGAAACAUGAGGAUCACCCAUGUCCUCAUAAGCUCGUCUUAU [salish99_TOv2_r3_060] (puzzle: Sensor v3, turn-off variant 2) | 16.6 | 717 | 13.8 |  |  |  |
| AGUACUAACACGUAAGUGUUAGUACAAUAAGCUUGUGUUACAUGAGGAUCACCCAUGUCCUCAUAAGCUCGUCUUAU [Mat - Sensor v3 - Turn-off var 2 - D60] (puzzle: Sensor v3, turn-off variant 2) | 134 | 77.6 | 150 |  |  |  |
| AGUACUAACACGUUUGUGUUAGUACAAUAAGCUUGUGAAACAUGAGGAUCACCCAUGUCCUCAUAAGCUCGUCUUAU [salish99_TOv2_r3_069] (puzzle: Sensor v3, turn-off variant 2) | 17.4 | 567 | 16.3 |  |  |  |
| AGUACUAACGCGAAAGUGUUAGUACAAUAAGCUUGUGAAACAUGAGGAUCACCCAUGUCCUCAUAAGCUCGUCUUAU [salish99_TOv2_r3_023] (puzzle: Sensor v3, turn-off variant 2) | 19 | 549 | 16.1 |  |  |  |
| AGUACUAACUCGAAAGUGUUAGUACAAUAAGCUUGUGAAACAUGAGGAUCACCCAUGUCCUCAUAAGCUCGUCUUAU [salish99_TOv2_r3_022] (Eterna round: R96, puzzle: Sensor v3, turn-off variant 2) |  |  |  | 16 | 430 | 18 |
| AGUACUAACUCGAAAGUGUUAGUACAAUAAGCUUGUGAAACAUGAGGAUCACCCAUGUCCUCAUAAGCUCGUCUUAU [salish99_TOv2_r3_022] (puzzle: Sensor v3, turn-off variant 2) | 15.7 | 739 | 15.3 |  |  |  |
| AGUACUAUCACGAAAGUGAUAGUACAAAAAGCAAGUGAAACAUGAGGAUCACCCAUGUCCUCAUUUGCUCGUCUUAU [Identical to 94% Sensor v2, turnoff variant 2] (puzzle: Sensor v3, turn-off variant 2) | 16.8 | 476 | 12.7 |  |  |  |
| AGUACUAUCACGAAAGUGAUAGUACAAAAAGCAAGUGAAACAUGAGGAUCACCCAUGUCCUCAUUUGCUCGUCUUAU [JL turnoff v2 99] (Eterna round: R96, puzzle: Sensor v2, turn-off variant 2) |  |  |  | 12.2 | 375 | 14.4 |
| AGUACUAUCACGAAAGUGAUAGUACAAAGAGCAAGUGGAACAUGAGGAUCACCCAUGUCCUCAUAUGCUCGUCUUAU [salish99-s2-v2-x003] (Eterna round: R96, puzzle: Sensor v2, turn-off variant 2) |  |  |  | 14.6 | 322 | 16.1 |
| AGUACUAUCACGAAAGUGAUAGUACAAUAAACAAGUGAAACAUGAGGAUCACCCAUGUCCUCAUUUGCUCGUCUUAU [Sensor 3 - 1] (puzzle: Sensor v3, turn-off variant 2) | 146 | 389 | 183 |  |  |  |
| AGUACUAUCACGAAAGUGAUAGUACAAUAAGCUAGUGAAACAUGAGGAUCACCCAUGUCCUCAUUAGCUCGUCUUAU [JL turnoff v2 78] (Eterna round: R96, puzzle: Sensor v2, turn-off variant 2) |  |  |  | 14 | 258 | 16.4 |
| AGUACUAUCACGAAAGUGAUAGUACAAUAAGCUUGUGAAACAUGAGGAUCACCCAUGUCCUCAUAAGCUCGUCUUAU [JL turnoff v2 77] (Eterna round: R96, puzzle: Sensor v2, turn-off variant 2) |  |  |  | 16.1 | 463 | 18.7 |
| AGUACUAUCACGAAAGUGAUAGUACAAUGAGCUUUUGAAACAUGAGGAUCACCCAUGUCCUCAUAAGCUCGUCUUAU [JL turnoff v2 52] (Eterna round: R96, puzzle: Sensor v2, turn-off variant 2) |  |  |  | 17.4 | 123 | 18.9 |
| AGUACUAUCACGAAAGUGAUAGUACAAUUGAGCUUUUGAACAUGAGGAUCACCCAUGUCCUCAUAAGCUCGUCUUAA [Mat - Sensor v2 - var 2 - Mod - D171] (Eterna round: R96, puzzle: Sensor v2, turn-off variant 2) |  |  |  | 28.7 | 496 | 30.5 |
| AGUACUGACACGUCGGUGUUAGUACAAUAAGCUUGUGAAACAUGAGGAUCACCCAUGUCCUCAUAAGCUCGUCUUAU [salish99_TOv2_r3_081] (Eterna round: R96, puzzle: Sensor v3, turn-off variant 2) |  |  |  | 15.1 | 481 | 17.2 |
| AGUACUGACACGUCGGUGUUAGUACAAUAAGCUUGUGAAACAUGAGGAUCACCCAUGUCCUCAUAAGCUCGUCUUAU [salish99_TOv2_r3_081] (puzzle: Sensor v3, turn-off variant 2) | 17 | 659 | 15 |  |  |  |
